Assay results taken from article PMC8442969.

Columns and labels:
Experiment in all cases: NMR titration
[1] = target: human mono-ubiquitin, N-terminally 6xHis tagged (made in house, for NMR) (human) (UniProt P0CG48)
[2] = target: human CSNAP (CSN Acidic Protein), GST tag removed (human)
[3] = target: human DSS1 (Deletion of Split-hand/Split-foot 1), GST tag removed (human)

Substance | Kd [1] [µM] | KD(app), first of two groups of residues [2] [µM] | KD(app), second of two groups of residues [2] [µM] | KD of site UBS2 (apparent) [3] [µM]
human DSS1 (Deletion of Split-hand/Split-foot 1), GST tag removed (natural protein) | 430 |  |  | 
human mono-ubiquitin, N-terminally 6xHis tagged (made in house, for NMR) (from UniProt P0CG48 1-76) (natural protein) |  | 800 | 2000 | 1800
